Experimental data taken from article PMC4902571.
Each block holds one substance with its values, some of them ahead of it.

Tests used:
[1] = target: EGFR-EGFP with deletion of the dimerization arm, residues 242 to 259 (human) (UniProt P00533); experiment: single-molecule stepwise photobleaching (TIRF microscopy); EGFP fusions on the membrane of live Xenopus oocytes, without EGF; ~1 to ~5 molecules per um^2; room temperature; 20 Hz; 3% two-step baseline (Claudin-16) subtracted
[2] = target: Src13-GCN4-EGFRk: c-Src membrane localization sequence, coiled-coil segment of GCN4 joined to the N-terminus of the kinase domain of EGFR, EGFP or mCherry (UniProt P00533); experiment: PIE-FCCS (pulsed-interleaved excitation fluorescence cross-correlation spectroscopy); control constructs with the c-Src membrane localization sequence, EGFP and mCherry fusions coexpressed; data collected previously on the same instrument and reproduced here; median fraction correlated fc
[3] = target: Src13-GCN4: c-Src membrane localization sequence, coiled-coil segment of GCN4, EGFP or mCherry; experiment: as above

fraction of two-step photobleaching events (baseline subtracted) [1]: 9%
Substance: EGFR-EGFP with deletion of the dimerization arm, residues 242 to 259 (from UniProt P00533 25-1210) (receptor)

fraction correlated fc (median) [2]: 0.23
Substance: Src13-GCN4-EGFRk: c-Src membrane localization sequence, coiled-coil segment of GCN4 joined to the N-terminus of the kinase domain of EGFR, EGFP or mCherry (from UniProt P00533 712-979)

fraction correlated fc (median) [3]: 0.13
Substance: Src13-GCN4: c-Src membrane localization sequence, coiled-coil segment of GCN4, EGFP or mCherry
